Source: patent EP4658690A2 (dated 2025)

Molecular target: T1, human CD180/MD-1 on HEK293 cells (human, UniProt Q99467 24-661; O95711 21-162)
T1 construct: whole, on cells; CD180 co-expressed with MD-1 on engineered HEK293 cells; also called HEK293 CD180/MD-1 cells; CD180/MD1 HEK293 cells
T1 sequence (looked up) 1: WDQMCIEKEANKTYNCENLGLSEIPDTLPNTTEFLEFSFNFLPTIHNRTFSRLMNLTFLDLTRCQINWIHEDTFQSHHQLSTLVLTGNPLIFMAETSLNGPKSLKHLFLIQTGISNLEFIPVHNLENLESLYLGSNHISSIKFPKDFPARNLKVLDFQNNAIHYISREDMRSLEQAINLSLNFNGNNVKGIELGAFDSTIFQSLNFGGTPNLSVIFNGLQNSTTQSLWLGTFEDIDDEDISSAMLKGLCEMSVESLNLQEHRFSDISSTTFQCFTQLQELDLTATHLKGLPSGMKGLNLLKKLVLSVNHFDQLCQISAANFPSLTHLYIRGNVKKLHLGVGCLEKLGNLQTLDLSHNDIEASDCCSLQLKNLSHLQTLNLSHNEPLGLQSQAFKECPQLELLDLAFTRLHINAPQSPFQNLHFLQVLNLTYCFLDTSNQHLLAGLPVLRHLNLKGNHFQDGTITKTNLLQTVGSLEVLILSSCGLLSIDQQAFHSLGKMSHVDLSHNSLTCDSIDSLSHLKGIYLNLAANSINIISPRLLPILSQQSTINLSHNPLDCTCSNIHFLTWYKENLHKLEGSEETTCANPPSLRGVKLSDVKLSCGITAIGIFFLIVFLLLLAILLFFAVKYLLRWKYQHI
T1 sequence (looked up) 2: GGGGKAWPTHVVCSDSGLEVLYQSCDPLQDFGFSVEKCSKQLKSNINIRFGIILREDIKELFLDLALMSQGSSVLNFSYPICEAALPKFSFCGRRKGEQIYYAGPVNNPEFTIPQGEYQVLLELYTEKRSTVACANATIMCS
Experiment: flow cytometry (called cell-based ELISA) on HEK293 CD180/MD-1 cells, MFI fitted to a 4-parameter curve

B1: CHAMPmAb-014 (antibody, V domains shown)
VH: EVQLVESGGGLVQPGRSLRLSCTTSGFTFADYAMHWVRQTPGQGLEWVSGISWNGGTMGYADSVKGRFTISRDIAKNSLYLQMNSLRAEDTALYYCAKDIAYSRGYFQHWGQGTLVTVSS
VL: not shown
**Q.** Which EC50 does the source give for B1 here?
**A.** 4 nM
